± gives the uncertainty stated by the source.

The nature of this series: amyloid nucleation score (Sup35N fusion, yeast selection) (log enrichment); library NNK3; higher = more nucleation; inactive = no reads after selection. In short, it runs like this: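 Nucleation score is defined as the DiMSum log enrichment of output over input reads, with centring on the mode score of non-aggregating sequences. A minimum of 100 input reads was required for each sequence. Reads came from Illumina sequencing of plasmid inserts from psi-negative yeast expressing Sup35N fused to peptides of 20 random codons, induced with 100 μM copper sulfate for 24 hours and grown 7 days at 30°C on medium lacking adenine and uracil.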
Turning to WCAWAVTCLTGVISRPLHES, the amyloid nucleation score is 0.042 ± 0.43.

In the case of WCESDVMDFGSYFADFLS, the amyloid nucleation score result is “inactive”.

Take WCFWNSC: the amyloid nucleation score result is “inactive”.

Take WCGVSLVL: the amyloid nucleation score entry is “inactive”.

For WCLSCVLTNIRVRIPNRTVV, the amyloid nucleation score entry was “inactive”.

For WCMFMMSNWRVRPADLFCIS, the amyloid nucleation score result was “inactive”.

Consider WCNVRYLVDMRFFTTVGVKL, for which the amyloid nucleation score result is “inactive”.

For the substance WDSWESYFASHHSF, the amyloid nucleation score entry was “inactive”.

As to WEFAGVVYEWGVWKSVSGYG, the amyloid nucleation score amounted to 0.336 ± 0.3.

In the case of WEHLGETYGVFMSTEDRESG, the amyloid nucleation score entry is “inactive”.

WELMCKALGRGRRCWYKCFL: the amyloid nucleation score result is “inactive”.

In turn, WEWVRPFFLLGYAPEPNITI registered an amyloid nucleation score of 0.232 ± 0.48.

Take WFSSKRDLR: the amyloid nucleation score entry was “inactive”.

Regarding WFVQLSRMWFYANGNCPV, the amyloid nucleation score entry is “inactive”.

Regarding WFYVIGTVMWYSLNAGYYMW, the amyloid nucleation score entry is “inactive”.

Turning to WGDIEVFFSYVVYLSIWRES, the amyloid nucleation score result is “inactive”.

With WGGSVRYKVSRICLGQCERE, the amyloid nucleation score result is “inactive”.

As to WGILW, the amyloid nucleation score turned out to be 0.482 ± 0.15.

WGLMIWSWPYMFCTLLPASR: the amyloid nucleation score result is “inactive”.

As for WGRGLRPTLVGMFARAHRGA, the amyloid nucleation score entry is “inactive”.

WGWPSFTCTWLCRRSSCRWP: the amyloid nucleation score entry was “inactive”.

In the case of WHIEVC, the amyloid nucleation score entry is “inactive”.

Take WHSKWVWNHNWLGSINCRYE: the amyloid nucleation score result is “inactive”.

As to WIDRQLKRGL, the amyloid nucleation score entry was “inactive”.

As for WIGMYSGETAFLSLPVTQQI, the amyloid nucleation score result was “inactive”.

Turning to WIHRMLSSGVDSPRNTSLWT, the amyloid nucleation score result is “inactive”.

WIHSGSSHWLNACDRMDMTK gave an amyloid nucleation score of -0.753 ± 1.3.

Turning to WIIEGSRLRC, the amyloid nucleation score entry was “inactive”.

For WILLGNGSMNMKSCFMLLFV, the amyloid nucleation score entry is “inactive”.

As for WIMPLDQ, the amyloid nucleation score result is “inactive”.

As to WINGTISDC, the amyloid nucleation score result was “inactive”.

Regarding WIPHPEFGVSIGIV, the amyloid nucleation score result is “inactive”.

On to WIVKL, for which the amyloid nucleation score result was “inactive”.

In the case of WKATNNAASVFGDLYGYYAN, the amyloid nucleation score result was “inactive”.

For the substance WKDWKLRPNY, the amyloid nucleation score result is “inactive”.

Take WKLASVFAVSMR: the amyloid nucleation score result is “inactive”.

WKTRHRVEVWASFLLSYQTG displayed an amyloid nucleation score of -0.551 ± 0.62.

For WLARTRRVVLRNLVLAVTCI, the amyloid nucleation score result was “inactive”.

As to WLDWSAGHCGYVKLLW, the amyloid nucleation score entry is “inactive”.

On to WLFNYRILCLSVMWFTKSIE, for which the amyloid nucleation score entry is “inactive”.

For the substance WLLENVPGITLAFV, the amyloid nucleation score entry is “inactive”.

As to WLLFDPVGVVKQSLVARNSY, the amyloid nucleation score entry is “inactive”.

As for WLNYCNCV, the amyloid nucleation score came out at 1.91 ± 0.078.

As to WLPPRVMLFTPLRQWLYR, the amyloid nucleation score entry is “inactive”.

Regarding WLQISIEKTTKFPSKMNH, the amyloid nucleation score was found to be 1.58 ± 0.11.

On to WLRLSL, for which the amyloid nucleation score result was “inactive”.

WLVFITPYLSLSCLSLINKI: the amyloid nucleation score result is “inactive”.

Take WLVSRIVHSLVVVIFDKDEG: the amyloid nucleation score result was “inactive”.

WMFRSAVFYGYVYALGCMRS had an amyloid nucleation score of 0.924 ± 0.22.

In the case of WMPQFCLRCSSVV, the amyloid nucleation score entry was “inactive”.

On to WNGKGLSSGTLSISRKT, for which the amyloid nucleation score result was “inactive”.

Turning to WNMNYVQFDGNVLVNAD, the amyloid nucleation score result was “inactive”.

WNMVYFLLQFSIDASLGT: the amyloid nucleation score entry was “inactive”.

As for WNNRWVCNLSTSSGMNLLDR, the amyloid nucleation score result is “inactive”.

With WNPCVHTLGI, the amyloid nucleation score result is “inactive”.

As to WNSLMAK, the amyloid nucleation score result is “inactive”.

In the case of WPFHWSFSFVISMYMSWGNS, the amyloid nucleation score result is “inactive”.

As for WPGLRCDSGQDKRNMF, the amyloid nucleation score was -0.039 ± 1.

As for WPKLVGCYRGSKGINGRVLY, the amyloid nucleation score entry was “inactive”.

Regarding WQPDTVKGEVLLRVGTMLSV, the amyloid nucleation score entry is “inactive”.

Substance WQRNFEWIYDPLRAKSWNSI gave an amyloid nucleation score of -0.558 ± 0.76.

With WQSRTKP, the amyloid nucleation score result was “inactive”.

As to WQVVGYKNLDLCVNLATTDW, the amyloid nucleation score result is “inactive”.

For WRFGRVFDWGRLHLGVDRCR, the amyloid nucleation score entry is “inactive”.

For WRGYPFAPVFYLI, the amyloid nucleation score result is “inactive”.

Turning to WRKTSVMFADSGIV, the amyloid nucleation score entry is “inactive”.

As to WSDIIVGIRTNCDVLFSGAY, the amyloid nucleation score entry is “inactive”.

For WSDLRI, the amyloid nucleation score entry was “inactive”.

WSFQLSVLFVCNLITYNCV showed an amyloid nucleation score of 1.68 ± 0.069.

For WSIRMW, the amyloid nucleation score entry was “inactive”.

For the substance WSNTFVWLSINLSYIV, the amyloid nucleation score entry is “inactive”.

For WSPWHENWGLGMLQLKTSLW, the amyloid nucleation score result was “inactive”.

Turning to WSSSW, the amyloid nucleation score entry was “inactive”.

Take WSSTRLPSMSPCGFIHQGYI: the amyloid nucleation score result is “inactive”.

In the case of WSTPWMWVRFGRIDHCSLGV, the amyloid nucleation score entry was “inactive”.

Turning to WSVSTQFPCFMSGSIGYNMS, the amyloid nucleation score result is “inactive”.

Regarding WSYIVLTVLTWVACCTFWFV, the amyloid nucleation score is -0.436 ± 0.49.

Turning to WTKSFSSNSTQVSQYYSFNL, the amyloid nucleation score result is “inactive”.

Turning to WTLARFTSD, the amyloid nucleation score result is “inactive”.

With WTMSKLNGRCTSCPHLARLS, the amyloid nucleation score result is “inactive”.

Turning to WTNIRFAF, the amyloid nucleation score entry is “inactive”.

On to WTRNTKLVEIIKMYYQNVNL, for which the amyloid nucleation score entry was “inactive”.

WVDGYFNLTENVPAVVGK: the amyloid nucleation score result was “inactive”.

Take WVFVRMMVELINMTAAFAVS: the amyloid nucleation score entry was “inactive”.

On to WVHFYDTMGDM, for which the amyloid nucleation score result is “inactive”.

As to WVHRIAS, the amyloid nucleation score result is “inactive”.

For the substance WVIACVMRYVVFKNKVMIVR, the amyloid nucleation score entry is “inactive”.

Regarding WVIIIYRYLFRNISAKQSRL, the amyloid nucleation score entry was “inactive”.

On to WVKPSSFWGFERNTYDIYIG, for which the amyloid nucleation score is -0.176 ± 0.62.

Substance WVNFRSPFLNGANA came in with an amyloid nucleation score of -0.686 ± 0.68.

On to WVNTGNQRLYRQTCCGTLVR, for which the amyloid nucleation score entry was “inactive”.

For WVRRYV, the amyloid nucleation score result was “inactive”.

Turning to WVTYWASRVFE, the amyloid nucleation score entry is “inactive”.

With WVWRSNSPGAEKWTLLTKTL, the amyloid nucleation score result is “inactive”.

With WVYDSTIRHHH, the amyloid nucleation score result is “inactive”.

For WWADA, the amyloid nucleation score result was “inactive”.

Consider WWKSLLTRWRCLPPRK, for which the amyloid nucleation score was -0.307 ± 0.62.

WWSKRLKRLVNCGLR: the amyloid nucleation score entry is “inactive”.

On to WYGDNRGIMYVLGSRINWRY, for which the amyloid nucleation score is 1.34 ± 0.087.

On to WYHGKWYLDLNYVVPVTQWK, for which the amyloid nucleation score entry was “inactive”.

As for WYHSQNVINCRQSVVTMKHN, the amyloid nucleation score entry was “inactive”.

Regarding WYRYSGGYNWP, the amyloid nucleation score came out at 0.396 ± 0.29.

As for WYYCRLRACVRH, the amyloid nucleation score result is “inactive”.

For YAAEYYVVQVIG, the amyloid nucleation score result is “inactive”.

The substance YAAIPQIVINVLVGGTNASC registered an amyloid nucleation score of 2.1 ± 0.069.

Turning to YAATRW, the amyloid nucleation score result was “inactive”.

For YAFKVCS, the amyloid nucleation score result is “inactive”.

YALIQIPKYRLGCRGWTMRG gave an amyloid nucleation score of 0.172 ± 0.27.

YALSVLVSRYQWSGWHYLYP: the amyloid nucleation score entry was “inactive”.

Consider YAWGYSSWETRN, for which the amyloid nucleation score result is “inactive”.

Regarding YCAYLLRSLWLGTAWEWWRQ, the amyloid nucleation score result was “inactive”.

Take YCCAKL: the amyloid nucleation score result was “inactive”.

With YCFNLFRSARRGDGCAMIGC, the amyloid nucleation score result is “inactive”.

Regarding YCGKCRAFCCQSCPIRVRLV, the amyloid nucleation score entry was “inactive”.

With YCHILTLATVMKPTFERAPS, the amyloid nucleation score result was “inactive”.

Consider YCSVLELKSYLTLSLSKWKW, for which the amyloid nucleation score result was “inactive”.

As for YCTWAYRVYSYSGCTMMIVL, the amyloid nucleation score entry was “inactive”.

Turning to YCYRYGWYHMNEDRIWDVRL, the amyloid nucleation score entry is “inactive”.

YDDVFFYSWVTFLRQLFDPL: the amyloid nucleation score result is “inactive”.

With YDGLSSAMGEHIRNNNCLLV, the amyloid nucleation score result is “inactive”.

Regarding YDKVLRPMVSYYSR, the amyloid nucleation score result was “inactive”.

Consider YDMSDMNCRRIW, for which the amyloid nucleation score result is “inactive”.

Regarding YDNVVYLIVGHYG, the amyloid nucleation score result is “inactive”.

Consider YEIFSVSLR, for which the amyloid nucleation score is -0.221 ± 0.9.

As for YEKPCEG, the amyloid nucleation score entry was “inactive”.

In the case of YETYKYLYGFVML, the amyloid nucleation score result is “inactive”.

YFFSVLG: the amyloid nucleation score result was “inactive”.

Take YFFVSWFRCMGPILSFTRVV: the amyloid nucleation score entry was “inactive”.

For the substance YFGSV, the amyloid nucleation score result was “inactive”.

In the case of YFIMSFSLQNFMGSPLNRLG, the amyloid nucleation score entry was “inactive”.

Regarding YFIRVILPFQLTLVVIWYKF, the amyloid nucleation score entry was “inactive”.

Consider YFLDV, for which the amyloid nucleation score result is “inactive”.

As for YFLGRVRK, the amyloid nucleation score entry was “inactive”.

The record behind these values is the supplement of paper PMC12042874.
